Measured values: the supplement of paper PMC10724198
± gives the standard deviation of the averaged measurements.

System: Saccharomyces cerevisiae
Test: protein stability index of tFT-peptide fusion (C-terminal peptide) (PSI (0-1 scale)); higher = more stable (slower turnover)
Conditions: temperature: 30 C
Description: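 MPS profiling in S. cerevisiae of the yeast C-terminome library: the last 12 aa of each annotated ORF are fused to the C-terminus of a sfGFP-mCherry timer, after a GGGS linker. Cells are FACS-sorted into 8 mCherry/sfGFP bins and deep-sequenced. PSI runs from 0 (unstable) to 1 (stable); wild type and das1Δ backgrounds, two technical replicates each.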

[1] = genetic background: das1 deletion

Sequence | protein stability index [1] | protein stability index (genetic background: wild type)
KGTKRDQNDNHN [AQR1 C-terminal 12 aa] | 0.698 ± 0.01 | 0.6782 ± 0.0022
AADPLSNDALFK [BRX1 C-terminal 12 aa] | 0.733 ± 0.063 | 0.737 ± 0.12
PHYKPRDGSQVE [SPT4 C-terminal 12 aa] | 0.69 ± 0.011 | 0.65 ± 0.0097
DKIDVVLKKISQ [ECM15 C-terminal 12 aa] | 0.7095 ± 0.0048 | 0.683 ± 0.067
NNTFLDVQAKSN [IMP1 C-terminal 12 aa] | 0.6944 ± 0.0068 | 0.712 ± 0.026
VSDSSYDEYSNE [SYT1 C-terminal 12 aa] | 0.679 ± 0.021 | 0.672 ± 0.03
SYFNTIMHNCKP [SET4 C-terminal 12 aa] | 0.72482 ± 0.00043 | 0.715 ± 0.0071
KKNGKISEKPKK [PDR15 C-terminal 12 aa] | 0.727 ± 0.02 | 0.677 ± 0.037
LLGFTTGKEVHL [SMF2 C-terminal 12 aa] | 0.6939 ± 0.0046 | 0.701 ± 0.014
LTHQSLLATARK [KIP3 C-terminal 12 aa] | 0.6931 ± 0.0014 | 0.6879 ± 0.00097
KERIVLSNVRPM [TFC7 C-terminal 12 aa] | 0.6909 ± 0.004 | 0.686 ± 0.027
QLLNDSPLEDKF [FBP26 C-terminal 12 aa] | 0.711 ± 0.026 | 0.7 ± 0.026
LRVEWSKPKVKE [TIF35 C-terminal 12 aa] | 0.699 ± 0.015 | 0.711 ± 0.044
IFVAILLRYAKI [PCA1 C-terminal 12 aa] | 0.243 ± 0.013 | 0.228 ± 0.006
EQLADYLIGVQY [PFY1 C-terminal 12 aa] | 0.686 ± 0.014 | 0.6754 ± 0.0032
QVNKPGPLTVPF [MEH1 C-terminal 12 aa] | 0.702 ± 0.015 | 0.716 ± 0.018
MLKFLAVVFFLL [YGL218W C-terminal 12 aa] | 0.392 ± 0.018 | 0.217 ± 0.011
PSPYYVSEVPVS [Q0010 C-terminal 12 aa] | 0.6371 ± 0.0047 | 0.6238 ± 0.0025
LRRSFAIYTLGH [MCM2 C-terminal 12 aa] | 0.647 ± 0.027 | 0.6562 ± 0.0043
VDIPVDVKKLQI [BUL2 C-terminal 12 aa] | 0.723 ± 0.035 | 0.696 ± 0.018
RSNAERKRRSPL [PBP2 C-terminal 12 aa] | 0.7121 ± 0.0039 | 0.68 ± 0.021

Sequence | protein stability index [1] | protein stability index (genetic background: wild type)
VLGDVIKIAQRL [HOM6 C-terminal 12 aa] | 0.728 ± 0.008 | 0.747 ± 0.031
QTSGTFLHFSRP [YEL075W-A C-terminal 12 aa] | 0.712 ± 0.01 | 0.718 ± 0.062
YDRDAKNDRSTT [YHL017W C-terminal 12 aa] | 0.705 ± 0.023 | 0.665 ± 0.061
AVYEELVHELFH [PSP1 C-terminal 12 aa] | 0.72 ± 0.021 | 0.675 ± 0.031
SHHPHKNGKISF [YKR011C C-terminal 12 aa] | 0.719 ± 0.028 | 0.69647 ± 0.00034
KSCDEDGQEDEA [TPA1 C-terminal 12 aa] | 0.693 ± 0.014 | 0.642 ± 0.011
YAVKDKIETLLI [SNU13 C-terminal 12 aa] | 0.7019 ± 0.0055 | 0.725 ± 0.12
KVWVAGQQVYQI [GUD1 C-terminal 12 aa] | 0.697 ± 0.012 | 0.6639 ± 0.0028
YLAFRLREFNKL [RSC1 C-terminal 12 aa] | 0.787 ± 0.05 | 0.726 ± 0.049
KRLGKKTVVTSR [DCC1 C-terminal 12 aa] | 0.701 ± 0.011 | 0.717 ± 0.055
QGRQGFNGGSRW [YNL208W C-terminal 12 aa] | 0.706 ± 0.025 | 0.681 ± 0.028
PFIFKTLEEQGL [CCP1 C-terminal 12 aa] | 0.743 ± 0.06 | 0.691 ± 0.065
LYTFIVKKVKRD [GID12 C-terminal 12 aa] | 0.671 ± 0.045 | 0.685 ± 0.024
STQHKSTTSFTQ [TGL4 C-terminal 12 aa] | 0.716 ± 0.035 | 0.655 ± 0.022
PRLKAKKKVTKP [TFB4 C-terminal 12 aa] | 0.6873 ± 0.003 | 0.67 ± 0.012
LSGAPQVTKKQN [POM33 C-terminal 12 aa] | 0.691 ± 0.013 | 0.674 ± 0.016
IAPEVTYRGFIE [RIM9 C-terminal 12 aa] | 0.689 ± 0.027 | 0.685 ± 0.03
LPGINSIFKNIF [TOD6 C-terminal 12 aa] | 0.774 ± 0.016 | 0.722 ± 0.063
KGNLPGVKKGIW [MRP2 C-terminal 12 aa] | 0.687 ± 0.012 | 0.668 ± 0.011
DDEFGDLDAVFF [SNF6 C-terminal 12 aa] | 0.747 ± 0.021 | 0.739 ± 0.0056
VVERTRQAHFAI [YEF1 C-terminal 12 aa] | 0.676 ± 0.023 | 0.6752 ± 0.0036

Sequence | protein stability index [1] | protein stability index (genetic background: wild type)
YFNKTEFLLADN [MRPL17 C-terminal 12 aa] | 0.713 ± 0.018 | 0.677 ± 0.025
LQNNDVTIGFAK [MUD1 C-terminal 12 aa] | 0.715 ± 0.0077 | 0.655 ± 0.02
VSNASNGCVLDA [ILV3 C-terminal 12 aa] | 0.70459 ± 3.7e-05 | 0.707 ± 0.013
EQVRFKNINYKS [AZF1 C-terminal 12 aa] | 0.654 ± 0.0011 | 0.673 ± 0.014
SLKDLIMQVTKM [CTO1 C-terminal 12 aa] | 0.753 ± 0.046 | 0.654 ± 0.069
LGDIYTLTNNEL [PHO13 C-terminal 12 aa] | 0.701 ± 0.01 | 0.6802 ± 0.00082
GESVDKVTKNEQ [YPR114W C-terminal 12 aa] | 0.691 ± 0.011 | 0.662 ± 0.014
NLMEMFTKRDRS [ROD1 C-terminal 12 aa] | 0.72 ± 0.022 | 0.713 ± 0.033
NLNQHVKTHASL [COM2 C-terminal 12 aa] | 0.6752 ± 0.0042 | 0.681 ± 0.029
KDKKDKKKKHRD [RPA34 C-terminal 12 aa] | 0.704 ± 0.013 | 0.664 ± 0.035
PTQPTVSNKKNN [GPI14 C-terminal 12 aa] | 0.7252 ± 0.0055 | 0.68 ± 0.022
SLYMNISYILLF [YGR073C C-terminal 12 aa] | 0.44985 ± 0.00042 | 0.2066 ± 0.0013
YKELVKNIESKL [CIT2 C-terminal 12 aa] | 0.752 ± 0.024 | 0.837 ± 0.015
NSAAFLLMSLKS [STB3 C-terminal 12 aa] | 0.674 ± 0.0086 | 0.679 ± 0.011
YRNIPESKPQGS [YIR021W-A C-terminal 12 aa] | 0.6812 ± 0.0038 | 0.6624 ± 0.0038
YEGPTLTEFEDA [CYB2 C-terminal 12 aa] | 0.6905 ± 0.0043 | 0.703 ± 0.015
EGENVRSKVERF [YKL070W C-terminal 12 aa] | 0.7262 ± 0.0046 | 0.704 ± 0.053
LETAFEEWDYYE [MRX6 C-terminal 12 aa] | 0.731 ± 0.016 | 0.787 ± 0.064
DERLEQLKRLGI [HOM3 C-terminal 12 aa] | 0.7246 ± 0.0048 | 0.677 ± 0.019
EEPQLDLLDDVL [MTW1 C-terminal 12 aa] | 0.706 ± 0.03 | 0.709 ± 0.084
SFRPKSSNNPFR [ENT4 C-terminal 12 aa] | 0.734 ± 0.02 | 0.674 ± 0.021

Sequence | protein stability index [1] | protein stability index (genetic background: wild type)
YILQKQIIEDVE [SFH5 C-terminal 12 aa] | 0.693 ± 0.0056 | 0.65 ± 0.043
AGTDKNTHPSSQ [SNT2 C-terminal 12 aa] | 0.692 ± 0.0098 | 0.694 ± 0.019
QTSKGPENLQFS [RAD53 C-terminal 12 aa] | 0.71 ± 0.05 | 0.723 ± 0.018
FVSHSRFFNRGT [VPS53 C-terminal 12 aa] | 0.684 ± 0.03 | 0.6958 ± 0.0033
KTSLKITHRRVI [YGL117W C-terminal 12 aa] | 0.7424 ± 0.0067 | 0.658 ± 0.0094
EKLAALVENAEV [PUF3 C-terminal 12 aa] | 0.68 ± 0.0089 | 0.679 ± 0.04
KLDEAEMQGLIM [YMR158C-A C-terminal 12 aa] | 0.69 ± 0.012 | 0.724 ± 0.041
ERTSLLSGETQT [YPQ2 C-terminal 12 aa] | 0.67739 ± 0.00033 | 0.684 ± 0.014
CVTQACGRTIKM [YBR141W-A C-terminal 12 aa] | 0.732 ± 0.037 | 0.779 ± 0.13
IRLDGENNSCSC [YPT7 C-terminal 12 aa] | 0.692 ± 0.017 | 0.697 ± 0.012
GQGTTLGGPFFP [ALB1 C-terminal 12 aa] | 0.724 ± 0.019 | 0.7215 ± 0.0052
EDEFLINSDDEM [CUE5 C-terminal 12 aa] | 0.726 ± 0.064 | 0.716 ± 0.037
CGCQLAVAMTTC [YFL015W-A C-terminal 12 aa] | 0.553 ± 0.039 | 0.513 ± 0.013
WERTMRDLKLIH [ALG1 C-terminal 12 aa] | 0.742 ± 0.027 | 0.64 ± 0.033
LKAVCPPEAGFD [VEL1 C-terminal 12 aa] | 0.7312 ± 0.0018 | 0.772 ± 0.019
NMRFFYRLYVKN [BMT6 C-terminal 12 aa] | 0.489 ± 0.015 | 0.45 ± 0.0084
NVIIQDKTKKTQ [MCD4 C-terminal 12 aa] | 0.733 ± 0.028 | 0.671 ± 0.011
KKLEGTIEYQKL [RPT4 C-terminal 12 aa] | 0.708 ± 0.027 | 0.702 ± 0.012
PSSEEDILHDEL [LHS1 C-terminal 12 aa] | 0.68 ± 0.046 | 0.692 ± 0.034
